Test results from paper PMC9482650, “Quantitative fragmentomics allow affinity mapping of interactomes” (Nature Communications, 2022).

T1: SHANK1, Q9Y566
T1 sequence (Q9Y566 658-767, limits assumed, looked up): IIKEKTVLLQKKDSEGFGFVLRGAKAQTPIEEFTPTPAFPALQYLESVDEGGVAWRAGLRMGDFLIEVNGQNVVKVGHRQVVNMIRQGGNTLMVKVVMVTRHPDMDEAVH

T2: LNX2_2, Q8N448
T2 sequence (Q8N448 334-432, limits assumed, looked up): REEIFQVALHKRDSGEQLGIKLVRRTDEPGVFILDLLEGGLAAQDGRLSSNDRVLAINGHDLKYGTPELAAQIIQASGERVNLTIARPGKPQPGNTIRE

T3: SNTG2, Q9NY99
T3 sequence (Q9NY99 68-166, limits assumed, looked up): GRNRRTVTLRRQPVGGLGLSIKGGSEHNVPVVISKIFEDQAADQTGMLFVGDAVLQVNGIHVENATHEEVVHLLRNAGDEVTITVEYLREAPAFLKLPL

T4: SIPA1L2, Q9P2F8
T4 sequence (Q9P2F8 945-1036, limits assumed, looked up): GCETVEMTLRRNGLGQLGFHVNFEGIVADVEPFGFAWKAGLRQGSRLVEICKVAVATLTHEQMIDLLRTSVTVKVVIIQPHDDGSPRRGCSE

T5: MPP2, Q14168
T5 sequence (Q14168 180-250, limits assumed, looked up): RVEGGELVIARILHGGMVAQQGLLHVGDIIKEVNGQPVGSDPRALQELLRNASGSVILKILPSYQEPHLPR

T6: PDZD7_3, Q9H5P4
T6 sequence (Q9H5P4 857-944, limits assumed, looked up): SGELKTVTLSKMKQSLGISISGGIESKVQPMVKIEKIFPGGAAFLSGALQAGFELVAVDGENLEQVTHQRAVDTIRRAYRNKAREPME

T7: PTPN13_1, Q12923
T7 sequence (Q12923 1088-1188, limits assumed, looked up): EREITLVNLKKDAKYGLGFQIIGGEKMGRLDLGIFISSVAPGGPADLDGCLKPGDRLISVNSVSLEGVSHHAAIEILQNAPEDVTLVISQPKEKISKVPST

T8: GRIP1_4, Q9Y3R0
T8 sequence (Q9Y3R0 467-571, limits assumed, looked up): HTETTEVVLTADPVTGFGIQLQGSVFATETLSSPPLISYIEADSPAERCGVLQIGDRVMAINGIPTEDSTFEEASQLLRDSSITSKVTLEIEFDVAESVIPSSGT

T9: DFNB31_1, Q9P202
T9 sequence (Q9P202 135-233, limits assumed, looked up): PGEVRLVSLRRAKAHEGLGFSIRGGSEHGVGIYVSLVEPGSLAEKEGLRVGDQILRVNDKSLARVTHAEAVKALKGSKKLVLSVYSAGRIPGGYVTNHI

T10: DLG3_3, Q92796
T10 sequence (Q92796 374-475, limits assumed, looked up): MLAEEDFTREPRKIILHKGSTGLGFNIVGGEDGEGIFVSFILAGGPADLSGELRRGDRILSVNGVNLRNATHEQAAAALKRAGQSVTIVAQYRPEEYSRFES

T11: PARD3B_1, Q8TEW8
T11 sequence (Q8TEW8 196-299, limits assumed, looked up): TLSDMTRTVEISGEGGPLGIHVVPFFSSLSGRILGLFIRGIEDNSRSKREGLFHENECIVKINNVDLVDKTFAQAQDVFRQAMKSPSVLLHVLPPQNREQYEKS


Experiments:
Experiment in all cases: holdup assay
Set-up in all cases: key: below the threshold = too weak to quantify, mostly under pKd 3.1 to 4
Details in all cases: plain residues with an end cap or a label only (N-terminal biotin on a linker: ado-ado)
FRMPD4, Q14CM0 = target: FRMPD4, Q14CM0
FRMPD4, Q14CM0, sequence (Q14CM0 67-160): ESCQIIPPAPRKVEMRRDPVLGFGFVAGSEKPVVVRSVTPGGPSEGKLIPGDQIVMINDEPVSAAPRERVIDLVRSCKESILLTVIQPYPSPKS

MAGI1_1, Q96QZ7 = target: MAGI1_1, Q96QZ7
MAGI1_1, Q96QZ7, sequence (Q96QZ7 1-106): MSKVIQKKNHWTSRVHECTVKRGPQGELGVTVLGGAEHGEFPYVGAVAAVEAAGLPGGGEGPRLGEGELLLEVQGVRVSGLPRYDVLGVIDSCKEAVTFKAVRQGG

SHANK1, Q9Y566 = target: T1, SHANK1, Q9Y566
LNX2_2, Q8N448 = target: T2, LNX2_2, Q8N448
LDB3, O75112 = target: LDB3, O75112
LDB3, O75112, sequence (O75112 1-94): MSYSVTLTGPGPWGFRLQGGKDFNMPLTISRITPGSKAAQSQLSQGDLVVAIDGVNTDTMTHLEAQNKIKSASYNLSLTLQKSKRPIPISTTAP

SNTG2, Q9NY99 = target: T3, SNTG2, Q9NY99
GRID2IP_2, A4D2P6 = target: GRID2IP_2, A4D2P6
GRID2IP_2, A4D2P6, sequence (A4D2P6 272-370): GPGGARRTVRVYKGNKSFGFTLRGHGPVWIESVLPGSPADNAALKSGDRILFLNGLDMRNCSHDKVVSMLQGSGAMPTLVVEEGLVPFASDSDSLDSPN

ARHGEF12, Q9NZN5-2 = target: ARHGEF12, Q9NZN5-2
ARHGEF12, Q9NZN5-2, sequence (Q9NZN5 other isoform, or with tags, fused parts or gaps): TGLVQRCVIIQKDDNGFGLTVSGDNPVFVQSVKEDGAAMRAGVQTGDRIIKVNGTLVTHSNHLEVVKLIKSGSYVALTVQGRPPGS

SCRIB_3, Q14160 = target: SCRIB_3, Q14160
SCRIB_3, Q14160, sequence (Q14160 999-1103): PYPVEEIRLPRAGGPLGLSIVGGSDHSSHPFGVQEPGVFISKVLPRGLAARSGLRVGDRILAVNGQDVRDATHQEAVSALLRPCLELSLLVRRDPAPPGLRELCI

IL16_1, Q14005 = target: IL16_1, Q14005
IL16_1, Q14005, sequence (Q14005 210-306): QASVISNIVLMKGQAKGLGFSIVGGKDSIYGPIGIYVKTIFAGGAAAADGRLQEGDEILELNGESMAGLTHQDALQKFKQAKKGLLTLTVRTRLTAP

SIPA1L2, Q9P2F8 = target: T4, SIPA1L2, Q9P2F8
MPP2, Q14168 = target: T5, MPP2, Q14168
PDZD7_3, Q9H5P4 = target: T6, PDZD7_3, Q9H5P4
PTPN13_1, Q12923 = target: T7, PTPN13_1, Q12923
MAGI2_6, Q86UL8 = target: MAGI2_6, Q86UL8
MAGI2_6, Q86UL8, sequence (Q86UL8 1141-1229): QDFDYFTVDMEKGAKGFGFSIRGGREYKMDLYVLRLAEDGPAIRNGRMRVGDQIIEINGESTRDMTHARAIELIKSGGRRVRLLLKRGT

GRIP1_4, Q9Y3R0 = target: T8, GRIP1_4, Q9Y3R0
DFNB31_1, Q9P202 = target: T9, DFNB31_1, Q9P202
LNX1_1, Q8TBB1 = target: LNX1_1, Q8TBB1
LNX1_1, Q8TBB1, sequence (Q8TBB1 261-371): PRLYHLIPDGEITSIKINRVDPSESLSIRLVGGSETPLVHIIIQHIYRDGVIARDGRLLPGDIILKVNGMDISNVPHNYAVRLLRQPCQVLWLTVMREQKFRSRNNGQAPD

DLG3_3, Q92796 = target: T10, DLG3_3, Q92796
PARD3B_1, Q8TEW8 = target: T11, PARD3B_1, Q8TEW8
NHERF2_2, Q15599 = target: NHERF2_2, Q15599
NHERF2_2, Q15599, sequence (Q15599 142-238): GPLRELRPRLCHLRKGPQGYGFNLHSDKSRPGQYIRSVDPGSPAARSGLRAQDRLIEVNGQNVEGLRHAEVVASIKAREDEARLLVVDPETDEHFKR

Inadl_9, Q8NI35 = target: Inadl_9, Q8NI35
Inadl_9, Q8NI35, sequence (Q8NI35 1530-1615): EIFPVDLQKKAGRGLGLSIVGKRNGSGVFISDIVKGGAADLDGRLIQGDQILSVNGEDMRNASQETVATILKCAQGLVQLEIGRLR

NHERF4_1, Q86UT5-2 = target: NHERF4_1, Q86UT5-2
NHERF4_1, Q86UT5-2, sequence (Q86UT5 other isoform, or with tags, fused parts or gaps): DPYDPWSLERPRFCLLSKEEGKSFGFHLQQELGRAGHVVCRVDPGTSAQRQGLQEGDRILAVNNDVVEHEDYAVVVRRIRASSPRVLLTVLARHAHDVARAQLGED

NHERF4_2, Q86UT5 = target: NHERF4_2, Q86UT5
NHERF4_2, Q86UT5, sequence (Q86UT5 220-308): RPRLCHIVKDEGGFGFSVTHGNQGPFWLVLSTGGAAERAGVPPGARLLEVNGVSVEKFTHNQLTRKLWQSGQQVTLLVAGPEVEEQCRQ

GRASP, Q7Z6J2 = target: GRASP, Q7Z6J2
GRASP, Q7Z6J2, sequence (Q7Z6J2 96-193): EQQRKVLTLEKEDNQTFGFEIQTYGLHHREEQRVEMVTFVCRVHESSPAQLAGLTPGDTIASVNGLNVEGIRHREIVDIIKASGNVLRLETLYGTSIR

CASK, O14936 = target: CASK, O14936
CASK, O14936, sequence (O14936 487-570): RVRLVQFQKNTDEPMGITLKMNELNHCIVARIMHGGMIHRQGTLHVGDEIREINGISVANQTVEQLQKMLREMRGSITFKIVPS

| Binder | pKd (FRMPD4, Q14CM0) | pKd (MAGI1_1, Q96QZ7) | pKd (SHANK1, Q9Y566) | pKd (LNX2_2, Q8N448) | pKd (LDB3, O75112) | pKd (SNTG2, Q9NY99) | pKd (GRID2IP_2, A4D2P6) | pKd (ARHGEF12, Q9NZN5-2) | pKd (SCRIB_3, Q14160) | pKd (IL16_1, Q14005) | pKd (SIPA1L2, Q9P2F8) | pKd (MPP2, Q14168) | pKd (PDZD7_3, Q9H5P4) | pKd (PTPN13_1, Q12923) | pKd (MAGI2_6, Q86UL8) | pKd (GRIP1_4, Q9Y3R0) | pKd (DFNB31_1, Q9P202) | pKd (LNX1_1, Q8TBB1) | pKd (DLG3_3, Q92796) | pKd (PARD3B_1, Q8TEW8) | further results |
| --- | --- | --- | --- | --- | --- | --- | --- | --- | --- | --- | --- | --- | --- | --- | --- | --- | --- | --- | --- | --- | --- |
| QKNRKAQEDL [CES3, Q6UWW8] | below the threshold | below the threshold | below the threshold | below the threshold | below the threshold | below the threshold | below the threshold | below the threshold | below the threshold | below the threshold | below the threshold | below the threshold | below the threshold | below the threshold | below the threshold | below the threshold | below the threshold | below the threshold | below the threshold | below the threshold | pKd (NHERF2_2, Q15599): below the threshold; pKd (Inadl_9, Q8NI35): below the threshold; pKd (NHERF4_1, Q86UT5-2): below the threshold; pKd (NHERF4_2, Q86UT5): below the threshold; pKd (GRASP, Q7Z6J2): below the threshold; pKd (CASK, O14936): below the threshold |
| DDEDRLVIEI [ZNF831, Q5JPB2] | below the threshold | below the threshold | below the threshold | 4.76 | 3.57 | below the threshold | below the threshold | 3.53 | 3.48 | below the threshold | below the threshold | below the threshold | below the threshold | below the threshold | below the threshold | below the threshold | below the threshold | below the threshold | below the threshold | 3.62 | pKd (NHERF2_2, Q15599): below the threshold; pKd (Inadl_9, Q8NI35): 3.48; pKd (NHERF4_1, Q86UT5-2): below the threshold; pKd (NHERF4_2, Q86UT5): below the threshold; pKd (GRASP, Q7Z6J2): 3.53; pKd (CASK, O14936): below the threshold |
| QMNQTLPVQV [EPHB3, P54753] | below the threshold | below the threshold | 3.54 | 5.12 | below the threshold | below the threshold | 3.58 | below the threshold | 3.48 | below the threshold | 3.5 | below the threshold | below the threshold | below the threshold | below the threshold | below the threshold | 3.51 | below the threshold | 3.56 | 3.78 | pKd (NHERF2_2, Q15599): 3.51; pKd (Inadl_9, Q8NI35): 4.34; pKd (NHERF4_1, Q86UT5-2): below the threshold; pKd (NHERF4_2, Q86UT5): 3.52; pKd (GRASP, Q7Z6J2): below the threshold; pKd (CASK, O14936): below the threshold |
| PKRSFIESNV [TANC1, Q9C0D5] | below the threshold | below the threshold | below the threshold | below the threshold | below the threshold | 4.71 | 3.53 | 3.47 | 5.05 | 4.83 | below the threshold | below the threshold | 4.12 | below the threshold | 4.09 | below the threshold | 3.83 | 4.08 | 4.23 | below the threshold | pKd (NHERF2_2, Q15599): below the threshold; pKd (Inadl_9, Q8NI35): below the threshold; pKd (NHERF4_1, Q86UT5-2): below the threshold; pKd (NHERF4_2, Q86UT5): below the threshold; pKd (GRASP, Q7Z6J2): below the threshold; pKd (CASK, O14936): below the threshold |
